Measurements as given in patent US6649168B2, “Pharmaceutical compositions comprising TGF-beta” (Novartis AG, priority 1999, dated 2003).

Experiments:
[1] = Fluorescence adsorption study (intrinsic tryptophan fluorescence) of binding to cuvette walls; type: physicochemical; conditions: solution of TGF-β (1 μg/ml) in water, 25° C.
Source text: We have also developed an analytical method suitable for determining suitable concentrations of TGF-β, especially TGF-β3. When adsorption of a fluorescent molecule (protein) occurs to the cuvette walls the concentration of the molecule in the solution decreases. This change in concentration is monitored by changes (reduction) in the fluorescence intensity. With optimized slits in the excitation and emission monochromators the excitation beam is focused in a small region in the middle of the cuvette and the emission is collected also preferentially from the same region. […] In these conditions the fluorescence intensity is proportional to the concentration of the molecules in the aqueous solution (monitored in the middle of the cuvette). If binding occurs a decrease in the fluorescence intensity is observed. For TGF-β the intrinsic tryptophan fluorescence is used in the adsorption studies. To characterize an adsorption process the percentage from the total TGF-β in the cuvette which bound to the walls in a given time interval, e.g. 25 minutes, is measured. Fluorescence measurements are performed with a Spex Fluorolog® or a Spex Fluoromax® spectrophotometers with a stirred attachment in the cell holder at 25° C. Tryptophan fluorescence is excited at 280 nm and emission monitored at 340 nm. […]

[2] = Chemical stability of lyophilized formulation, by-products by capillary zone electrophoresis; type: physicochemical; conditions: in the absence of CaCl2
Description: The chemical stability of lyophilized formulation in vials containing TGF-β3, 5.881 mg of CaCl2 and 25 mg of mannitol have been tested. The vials are solubilized to obtain TGF-β3 solutions of 0.1 mg/ml and 0.25 mg/ml. TGF-β3 by-products (related substances) are determined by capillary zone electrophoresis. […] There is no increase in the TGF-β3 by-products after 6 month incubation at 40° C. In comparison, in the absence of CaCl2 the chemical degradation is substantial.

cranial bone defect = assay: Rabbit cranial defect model, bony filling by quantitative radiography; type: in vivo
Description: (§1) The in vivo performance of the pharmaceutical compositions of the present invention may be tested on horses (wound healing), pigs (oral mucositis inhibition), rabbits e.g. with the rabbit cranial defect model (induction of repairing of bone defects), and femal mice (induction of angiogenesis).
Bone disks removed for creation of the defect served as controls for the extent of bone regeneration. After an eight week healing period the bony filling of the defects was determined by quantitative radiography. The total defect area corresponded to 113320.2 pixels and was taken as 100% for further calculations. Accordingly, complete regeneration corresponded to a value of 11.3×10^4 pixels.

vascularization = assay: Mouse subcutaneous model (induction of angiogenesis); type: in vivo
Source text: as §1

[3] = Aggregation by 90°-light scattering; type: physicochemical; conditions: 10 mM calcium chloride or 10 mM calcium phosphate, and 20% isopropanol or ethanol; increasing TGF-β3 concentration up to 60 μg/ml
Description: Aggregation of TGF-β3 in different aqueous conditions is studied using 90°-lightscattering. Using the same wavelength for excitation and emission, e.g. excitation and emission wavelength is 560 nm, a Spectrofluorimeter is used to detect aggregation events by measuring the 90°-light scatter. In this method a small aliquot of TGF-β3 stock solution is added in the fluorescence cuvette. If aggregation takes place an increase in the 90°-light scatter intensity is observed.
A composition comprising 10 mM calcium chloride or 10 mM calcium phosphate, and 20% isopropanol or ethanol is prepared.

Row | Substance | binding to plastic, quartz and siliconised quartz cuvettes [1] | chemical degradation [2] | bone formation (in words) (cranial bone defect) | vascularization (in words) (vascularization) | aggregation (90°-light scatter intensity) [3]
1 | TGF-β | bind strongly | – | – | – | –
2 | TGF-β3: 25 kD homodimeric, disulfide-linked protein composed of two 112 amino acid polypeptides | – | substantial | strong bone formation | strong vascularization | No aggregation
